Measurements: PMC9701186 (Nature Communications, 2022)

Assays:
[1] = molecular target: Aigai virus strain Pentalofos GP38 (Aigai virus, strain Pentalofos, UniProt A0A2P1JMM7, strain); experiment: BLI; […]; antibody (1 µg/mL) […] (AHC) sensors; […]; 300 s association, 600 s dissociation; global 1:1 fit; conditions: both partners purified
[2] = molecular target: Aigai virus strain Pentalofos GP38 (Aigai virus, strain Pentalofos, UniProt A0A2P1JMM7, strain); experiment: BLI; […]; mAb (1 µg/mL) […] (AHC) sensors; […]; 1× Octet kinetics buffer; global 1:1 fit; conditions: both partners purified

B1: CC5-17 mAb (antibody, V domains shown)
VH: EVQLVQSGAEVKKPGESLRISCKGSGYSFTSYWIGWVRQMPGKGLEWMGIIYPGDSDTRYSPSFQGQVTISADKSISTAYLQWTSLKASDTAMYYCARQLGGSSFGNYYDSGSYYTAAYWGQGTLVTVSS
VL: DIQMTQSPSSLSASVGDRVTITCRASQSINNYLNWYQQKPGKAPKLLIYAASTLQSGVPSRFSGSGSGTDFTLTISSLQPEDFASYYCQQSYRGTFGQGTKVEFK
notes: copies: 2 + 2
binding result [1]: no binding (tested: 100nM)

B2: CC5-17 mAb (antibody, V domains shown)
VH: B1 VH
VL: B1 VL
binding result [2]: no binding (tested: up to 20.0 nM GP38)

B3: human chimeric 13G8 mAb (c13G8) (antibody, V domains shown)
VH: DVQLQQSGPGLVAPSQSLSITCTVSGFSLTNYGIHWVRQPPGKGLEWLGVIWAGGYTKYNSALMSRLSMSKDNSKSQVFLKMNSLQTDDTAMYYCARDEVRRDYYAMDHWGQGTTVTVSS
VL: DIQMTQSPAILSASPGEKVTMTCWASSGVSYMHWYQQKPGSSPKPWIFATSNLASGVPARFSGSGSGTSYSLTISRVEAEDAATYYCQQWSFNPLTFGAGTKLEIK
notes: copies: 2 + 2
binding result [1]: no binding (tested: 100nM)

B4: human chimeric 13G8 mAb (c13G8) (antibody, V domains shown)
VH: B3 VH
VL: B3 VL
notes: source: Expi293 cells, purified (mAb Select Sure column)
binding result [2]: no binding (tested: up to 20.0 nM GP38)
